Data as given in US20170015742A1 (published 2017).

Experiments:
Recombinant rat FcRn = molecular target: T1, Recombinant rat FcRn (rat, UniProt P13599 23-298, limits assumed); test: Biacore SPR; DVD-Ig immobilised by amine coupling, recombinant FcRn injected; 1:1 binding fit
T1 construct: FcRn is normally a heterodimer with beta-2-microglobulin
T1 sequence (looked up) 1: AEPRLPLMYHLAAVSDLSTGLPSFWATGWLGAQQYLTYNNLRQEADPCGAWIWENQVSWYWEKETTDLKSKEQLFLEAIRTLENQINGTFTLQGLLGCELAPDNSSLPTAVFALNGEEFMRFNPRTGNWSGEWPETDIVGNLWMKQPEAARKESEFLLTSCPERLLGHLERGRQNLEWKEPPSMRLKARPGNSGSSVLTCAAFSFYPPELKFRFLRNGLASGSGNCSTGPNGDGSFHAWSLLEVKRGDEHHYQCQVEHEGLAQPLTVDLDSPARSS
T1 sequence (looked up) 2: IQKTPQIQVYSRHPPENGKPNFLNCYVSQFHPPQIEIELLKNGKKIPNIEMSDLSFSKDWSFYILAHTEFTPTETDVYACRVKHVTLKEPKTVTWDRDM
Experimental: Human, cynomolgus, mouse, rat and rabbit recombinant FcRns were injected over all the flow cells at a flow rate of 50 μL/minute for 1 minute at a concentrations range of from 2.7 to 6000 nM (three fold serial dilution), followed by a 2 minute dissociation time. The surfaces were regenerated with an injection of 10 mM HCl at 100 μL/minute for 2 seconds followed by an injection of HBS-EP+, pH 7.4, at a flow rate of 50 μL/minute for 30 seconds over all four flow cells. Samples were prepared and run in two running buffer systems, pH 6.0 MES-EP+, and pH […]. Recombinant human FcγRIIIa V158 and rat and mouse FcRn data were fitted to 1:1 kinetic model. Recombinant human FcγRIIa R131 and FcγRIIa H131, FcγRIIIa F158, and recombinant human, cynomolgus and rabbit FcRn binding data were fitted to a steady state affinity model. Biacore T200 Evaluation Software version 2.0 was used to fit all the data.

[1] = molecular target: T2, Recombinant human FcγRIIIa F158, 6xHis-tagged (human, UniProt P08637 17-208, limits assumed); test: Biacore SPR; His-tagged human FcγR captured on anti-6xHis antibody, DVD-Ig injected
T2 construct: Captured through its 6xHis tag
Experimental: (§1) A CM5 chip (GE Healthcare, Pittsburgh, Pa.) with mouse anti-6×His antibodies (“6×His” disclosed as SEQ ID NO: 405) that were directly immobilized on the chip via amine coupling according to the GE Healthcare protocol to the density of 10000RU (all flow cells) was used for experiments. Human FcγRs were captured on flow cells 2, 3 and 4. Flow cell 1 was used as a reference surface. HBS-EP+ was used as the running buffer. […] The chip surfaces were regenerated with an injection of 10 mM glycine pH 1.5 at a flow rate of 100 μL/minute over all four flow cells after each cycle.

[2] = molecular target: T3, Recombinant human FcγRIIb, 6xHis-tagged (human, UniProt P31994 46-217, limits assumed); test: as above
T3 construct: Captured through its 6xHis tag; also called huFcRIIb
T3 sequence: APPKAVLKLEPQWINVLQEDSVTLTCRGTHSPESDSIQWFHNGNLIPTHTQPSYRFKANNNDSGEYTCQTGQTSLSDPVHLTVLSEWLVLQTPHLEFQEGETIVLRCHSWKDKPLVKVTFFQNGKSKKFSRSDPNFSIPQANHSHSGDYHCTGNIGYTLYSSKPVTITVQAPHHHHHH
Experimental: as §1

[3] = molecular target: T4, Recombinant human FcγRIIa H131, 6xHis-tagged (human, UniProt P12318 36-218, limits assumed); test: as above
T4 construct: Captured through its 6xHis tag
T4 sequence: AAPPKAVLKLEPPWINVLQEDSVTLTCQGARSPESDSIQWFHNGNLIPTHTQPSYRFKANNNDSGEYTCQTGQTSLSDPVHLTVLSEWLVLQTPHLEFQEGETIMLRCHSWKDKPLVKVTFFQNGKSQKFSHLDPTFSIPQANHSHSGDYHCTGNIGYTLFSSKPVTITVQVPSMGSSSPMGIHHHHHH
Experimental: as §1

[4] = molecular target: T5, Recombinant human FcγRIIa R131, 6xHis-tagged (human, UniProt P12318 36-218, limits assumed); test: as above
T5 construct: Captured through its 6xHis tag
T5 sequence: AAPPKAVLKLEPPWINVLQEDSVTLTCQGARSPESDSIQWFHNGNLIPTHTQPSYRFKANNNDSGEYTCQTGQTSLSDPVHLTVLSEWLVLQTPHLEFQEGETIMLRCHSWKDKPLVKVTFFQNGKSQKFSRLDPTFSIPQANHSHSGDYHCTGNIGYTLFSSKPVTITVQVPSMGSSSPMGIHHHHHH
Experimental: as §1

[5] = molecular target: T6, Cynomolgus monkey PDGF-BB (cynomolgus monkey, UniProt P01127 82-190 (human entry), limits assumed); test: affinity KD as tabulated in Table 69; method not given
T6 construct: Homodimer of B chains; also called cyno PDGF; cynoPDGF-BB
T6 chain: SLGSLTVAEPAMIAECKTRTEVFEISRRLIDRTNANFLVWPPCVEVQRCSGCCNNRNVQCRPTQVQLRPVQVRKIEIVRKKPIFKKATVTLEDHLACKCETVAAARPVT

Cynomolgus monkey VEGF-A = molecular target: T7, Cynomolgus monkey VEGF-A (cynomolgus monkey, UniProt P15692 207-395 (human entry)); test: as above
T7 construct: also called cyno VEGF

Rabbit PDGF-BB = molecular target: T8, Rabbit PDGF-BB (rabbit, UniProt Q05028 74-182 (rat entry)); test: as above
T8 construct: also called rab PDGF

Rat PDGF-BB = molecular target: T9, Rat PDGF-BB (rat, UniProt Q05028 74-182); test: as above
T9 construct: Homodimer of B chains

Mouse PDGF-BB = molecular target: T10, Mouse PDGF-BB (mouse, UniProt P31240 82-190); test: as above
T10 construct: Homodimer of B chains; also called mo PDGF; mPDGF-BB

[6] = molecular target: T11, Recombinant human FcγRIIIa V158, 6xHis-tagged (human, UniProt P08637 17-208, limits assumed); test: Biacore SPR; His-tagged huFcγRIIIa 158V captured on anti-6xHis antibody, DVD-Ig injected; steady state fit
T11 construct: Captured through its 6xHis tag; also called huFcRIIIa 158V
Experimental: as §1
The binding of DVD-Ig molecules to FcRn from various species and the binding of DVD-Ig molecules to various FcγRs were characterized by Biacore using the method described in Example 1.2.

[7] = molecular target: T12, recombinant human VEGF-R2-Fc (R&D Systems cat#357-KD) (human, UniProt P35968 20-764); test: competition ELISA: antibody on coated hVEGFR2-Fc against biotinylated hVEGF165 (Example 1.23)
T12 construct: Bought reagent; also called hVEGFR2-Fc; hVEGF-R2 (KDR/Flk-1); not shown: Fc part of the bought fusion protein
Experimental: (§2) To identify molecules which could block the binding of VEGF-R2 (KDR/Flk-1) to hVEGF₁₆₅, a competition ELISA was performed. […] Plates were then washed four times with wash buffer (TBS, 0.05% Tween-20) and blocked with Superblock blocking buffer (Thermo Scientific, cat#37535). […] The samples were added to wells and incubated for 30 minutes at 25° C. with shaking. […] Following incubation, plates were washed four times with wash buffer. Streptavidin-polyHRP-40 (Fitzgerald cat#65r-s104phrp) was diluted in assay diluent (10% Superblock containing 0.05% surfactamps) and added to plates (50 μL) for 45 minutes at 25° C. with shaking. Plates were washed four times with wash buffer and developed with the addition of Enhanced K-blue TMB substrate (Neogen cat#308177). The reaction was stopped with 2N sulfuric acid (VWR, cat# BDH3500-1) and the absorbance was read at 450 nm-570 nm. A decrease in observed optical density indicates the test molecule is blocking the human VEGF-R2-Fc binding to hVEGF₁₆₅. Data was analyzed using Softmax Pro 4.8 software and IC₅₀ values calculated using a sigmoidal dose response (variable slope) fit in GraphPad Prism 5.

[8] = molecular target: T13, recombinant mouse VEGF-R2-Fc (R&D Systems cat#443-KD) (mouse, UniProt P35918 20-762); test: competition ELISA: antibody on coated mVEGFR2-Fc against mVEGF164 (Example 1.25)
T13 construct: Bought reagent; also called mVEGFR2-Fc; mVEGF-R2; not shown: Fc part of the bought fusion protein

[9] = molecular target: T14, recombinant human PDGF-Rβ-Fc (R&D Systems #385-PR) (human, UniProt P09619 33-530); test: direct ELISA on coated recombinant human PDGF-Rβ-Fc (Example 1.26)
T14 construct: Bought reagent; also called hPDGFRβ-Fc; huPDGF Rβ; not shown: Fc part of the bought fusion protein
Experimental: Plates were then washed four times with wash buffer (TBS, 0.05% Tween-20) and blocked with Superblock blocking buffer (Thermo Scientific, cat#37535). During the blocking step, supernatants, antibodies and benchmark compounds were diluted in assay diluent (10% Superblock containing 0.05% surfactamps) and an eight point titration of each sample molecule was performed. […] Following incubation, plates were washed four times with wash buffer. […] Plates were washed four times with wash buffer and developed with the addition of Enhanced K-blue TMB substrate (Neogen, cat#308177). The reaction was stopped with 2N sulfuric acid (VWR, cat# BDH3500-1) and the absorbance was read at 450 nm-570 nm. […] Data was analyzed using Softmax Pro 4.8 software and IC₅₀ values calculated using a sigmoidal dose response (variable slope) fit in GraphPad Prism 5.

[10] = molecular target: T15, recombinant human VEGF-R2-Fc (human, UniProt P35968 20-764); test: competition ELISA: antibody added to coated hVEGF-R2-Fc, then biotin-hVEGF165
T15 construct: also called hVEGFR2-Fc; KDR/Flk-1; not shown: Fc part of the bought fusion protein
Experimental: as §2

T2 sequence (P08637 other isoform, or with tags, fused parts or gaps limits assumed): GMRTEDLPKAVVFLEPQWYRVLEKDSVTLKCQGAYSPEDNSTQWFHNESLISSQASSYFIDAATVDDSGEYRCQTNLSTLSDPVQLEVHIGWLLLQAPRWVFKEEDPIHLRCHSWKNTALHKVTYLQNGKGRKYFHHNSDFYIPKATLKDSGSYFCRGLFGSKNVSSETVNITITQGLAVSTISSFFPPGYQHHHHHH
T14 sequence (P09619 33-530 limits assumed): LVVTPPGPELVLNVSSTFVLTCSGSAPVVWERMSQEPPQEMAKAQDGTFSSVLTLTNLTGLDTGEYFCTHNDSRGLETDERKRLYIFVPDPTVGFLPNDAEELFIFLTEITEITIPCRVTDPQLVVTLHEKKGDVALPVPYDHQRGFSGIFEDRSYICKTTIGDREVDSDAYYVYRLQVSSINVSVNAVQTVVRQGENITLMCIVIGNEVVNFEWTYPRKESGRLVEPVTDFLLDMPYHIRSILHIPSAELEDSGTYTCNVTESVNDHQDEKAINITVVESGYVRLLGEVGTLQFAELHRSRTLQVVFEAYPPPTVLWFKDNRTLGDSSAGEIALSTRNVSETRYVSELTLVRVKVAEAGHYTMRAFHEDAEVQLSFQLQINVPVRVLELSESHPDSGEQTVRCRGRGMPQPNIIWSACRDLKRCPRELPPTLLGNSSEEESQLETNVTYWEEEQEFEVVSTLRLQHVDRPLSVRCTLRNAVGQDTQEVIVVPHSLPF
T7 sequence (P15692 other isoform, or with tags, fused parts or gaps limits assumed): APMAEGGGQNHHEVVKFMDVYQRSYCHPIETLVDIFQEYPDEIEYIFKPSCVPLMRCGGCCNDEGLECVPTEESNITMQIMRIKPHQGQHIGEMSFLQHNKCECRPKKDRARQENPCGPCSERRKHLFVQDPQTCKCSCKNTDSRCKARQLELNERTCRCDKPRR
T10 sequence (P31240 82-190 limits assumed): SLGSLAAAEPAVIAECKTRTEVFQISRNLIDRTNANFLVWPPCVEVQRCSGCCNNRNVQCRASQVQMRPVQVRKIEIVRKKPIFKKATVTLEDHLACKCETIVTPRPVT
T12 sequence (P35968 20-764 limits assumed): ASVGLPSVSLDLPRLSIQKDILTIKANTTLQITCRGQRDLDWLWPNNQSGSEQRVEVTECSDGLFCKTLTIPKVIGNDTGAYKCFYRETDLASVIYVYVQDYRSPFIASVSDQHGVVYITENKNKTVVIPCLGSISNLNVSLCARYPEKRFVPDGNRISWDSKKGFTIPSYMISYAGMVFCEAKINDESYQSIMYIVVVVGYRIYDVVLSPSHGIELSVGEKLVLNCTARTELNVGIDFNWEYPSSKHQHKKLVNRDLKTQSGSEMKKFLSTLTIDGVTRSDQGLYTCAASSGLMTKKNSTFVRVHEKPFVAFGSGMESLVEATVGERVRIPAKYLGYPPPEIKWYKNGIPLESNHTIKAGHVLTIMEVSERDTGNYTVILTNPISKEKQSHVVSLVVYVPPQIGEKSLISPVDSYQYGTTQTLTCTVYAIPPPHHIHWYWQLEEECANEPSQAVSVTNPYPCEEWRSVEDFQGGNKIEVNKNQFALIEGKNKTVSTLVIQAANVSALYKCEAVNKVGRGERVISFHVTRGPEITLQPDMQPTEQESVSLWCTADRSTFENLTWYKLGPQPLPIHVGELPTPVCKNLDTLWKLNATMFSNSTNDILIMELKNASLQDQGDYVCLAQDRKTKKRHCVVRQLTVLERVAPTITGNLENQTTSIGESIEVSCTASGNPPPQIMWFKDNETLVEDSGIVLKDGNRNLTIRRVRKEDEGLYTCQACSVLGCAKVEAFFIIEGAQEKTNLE
T15 sequence (P35968 20-764 limits assumed): as above
T11 sequence (P08637 other isoform, or with tags, fused parts or gaps limits assumed): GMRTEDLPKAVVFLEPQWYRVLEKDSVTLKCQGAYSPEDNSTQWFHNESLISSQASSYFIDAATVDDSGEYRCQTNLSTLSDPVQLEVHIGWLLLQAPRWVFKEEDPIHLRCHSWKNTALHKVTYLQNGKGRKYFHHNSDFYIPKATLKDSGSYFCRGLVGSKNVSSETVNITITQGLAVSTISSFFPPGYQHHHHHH
T13 sequence (P35918 20-762 limits assumed): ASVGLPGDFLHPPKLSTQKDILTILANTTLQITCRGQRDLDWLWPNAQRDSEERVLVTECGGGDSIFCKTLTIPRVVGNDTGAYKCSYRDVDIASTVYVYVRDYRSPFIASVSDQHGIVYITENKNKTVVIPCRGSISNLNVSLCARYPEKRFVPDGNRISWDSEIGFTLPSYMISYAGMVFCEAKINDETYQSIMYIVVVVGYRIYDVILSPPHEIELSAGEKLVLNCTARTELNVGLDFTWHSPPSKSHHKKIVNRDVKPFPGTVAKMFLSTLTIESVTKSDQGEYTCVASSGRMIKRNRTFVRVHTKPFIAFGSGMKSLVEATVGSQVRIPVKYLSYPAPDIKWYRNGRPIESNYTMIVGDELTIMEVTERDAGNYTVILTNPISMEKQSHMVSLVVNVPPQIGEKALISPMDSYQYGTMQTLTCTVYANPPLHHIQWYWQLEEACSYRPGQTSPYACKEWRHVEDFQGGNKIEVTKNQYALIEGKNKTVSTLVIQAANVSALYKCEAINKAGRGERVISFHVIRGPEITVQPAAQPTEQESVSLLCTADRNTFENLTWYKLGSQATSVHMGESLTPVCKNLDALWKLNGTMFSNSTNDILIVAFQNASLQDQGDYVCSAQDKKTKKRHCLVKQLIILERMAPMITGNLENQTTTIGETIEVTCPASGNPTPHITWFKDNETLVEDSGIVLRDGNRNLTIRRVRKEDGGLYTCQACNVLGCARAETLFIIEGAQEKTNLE
T8 sequence (Q05028 74-182 limits assumed): as the sequence (P31240 82-190 limits assumed) above, with I83V, I102V counted along it
T9 sequence (Q05028 74-182 limits assumed): as the sequence (P31240 82-190 limits assumed) above, with I83V, I102V counted along it

B1: 9E10.1_GS_CL-33675 (PR-1610561), anti-VEGF-A/anti-PDGF-BB DVD-Ig, hu IgG1/k L234A L235A H435A (bispecific antibody)
heavy: EIQLVQSGSELKKPGASVKVSCKASGYTFTNYGMYWVKQAPGQGLEYMGWIDTETGRPTYADDFKGRFVFSLDTSVSTAYLQISSLKAEDTAVYFCARWSGDTTGIRGPWFAYWGQGTLVTVSSGGGGSGGGGSEVTLRESGPALVKPTQTLTLTCTFSGFSLSTYGMGVGWIRQPPGKALEWLANIWWDDDKYYNPSLKNRLTISKDTSKNQVVLTMTNMDPVDTATYYCARIESSGPKYSFDYWGQGTMVTVSSASTKGPSVFPLAPSSKSTSGGTAALGCLVKDYFPEPVTVSWNSGALTSGVHTFPAVLQSSGLYSLSSVVTVPSSSLGTQTYICNVNHKPSNTKVDKKVEPKSCDKTHTCPPCPAPEAAGGPSVFLFPPKPKDTLMISRTPEVTCVVVDVSHEDPEVKFNWYVDGVEVHNAKTKPREEQYNSTYRVVSVLTVLHQDWLNGKEYKCKVSNKALPAPIEKTISKAKGQPREPQVYTLPPSREEMTKNQVSLTCLVKGFYPSDIAVEWESNGQPENNYKTTPPVLDSDGSFFLYSKLTVDKSRWQQGNVFSCSVMHEALHNAYTQKSLSLSPGK
light: DIRMTQSPSSLSASVGDRVTIECLASEDIYSDLAWYQQKPGKSPKLLIYNANGLQNGVPSRFSGSGSGTDYSLTISSLQPEDVATYFCQQYNYFPGTFGQGTKLEIKGGSGGGGSGGEIVLTQSPGTLSLSPGERATLSCRASSGSIWYSFVSWYQQKPGQAPRLLIYADDQRASGIPDRFSGSGSGTDFTLTISRLEPEDFAVYYCQSYGINIDVVFGGGTKVEIKRTVAAPSVFIFPPSDEQLKSGTASVVCLLNNFYPREAKVQWKVDNALQSGNSQESVTEQDSKDSTYSLSSTLTLSKADYEKHKVYACEVTHQGLSSPVTKSFNRGEC
notes: also called 9E10.1-GS-33675; hu VEGF 9E10.1-GS-hu PDGF 33675 [hu IgG1/k]; LALA H435A
- binding result (Recombinant rat FcRn): no binding (tested: FcRn 2.7 to 6000 nM)
- binding result [1]: no binding (tested: DVD-Ig 31.25 to 4000 nM)
- binding result [2]: no binding (tested: DVD-Ig 31.25 to 4000 nM)
- binding result [3]: no binding (tested: DVD-Ig 31.25 to 4000 nM)
- binding result [4]: no binding (tested: DVD-Ig 31.25 to 4000 nM)
- Kd [5]: 0.0008 nM
- Kd (Cynomolgus monkey VEGF-A): 0.065 nM
- Kd (Rabbit PDGF-BB): 0.003 nM
- Kd (Rat PDGF-BB): 0.003 nM
- Kd (Mouse PDGF-BB): 0.0003 nM
- Kd [6]: 11000 nM

B2: BCU-6B1-G6 (antibody, V domains shown)
VH: QIQLVQSGPELKKPGESVKISCKASGYTFTNYGMYWVKQAPGQALQFMGWINTETGQPTYADDFKGRFVFFLETSASTAYLQINNLKNEDMATYFCARLGNNYGIWFAYWGQGTLVTVSS
VL: DIQMTQSPASLSASLGETVTIECRASDDLYSTLAWYQQKPGDSPQLLIFDANRLAAGVPSRFSGSGSGTQYSLKINSLQSEDVASYFCQQYNKFPWTFGGGTKLELK
notes: Rat hybridoma anti-human VEGFR II monoclonal antibody, isotype IgG2a/κ
- IC50 [7]: 4.85 nM
- IC50 [8]: 1.35 nM

B3: BDE-8H6-F7 (antibody, V domains shown)
VH: EVQLVESGGGLVQPGSSLKLSCLASGFTFSNYNMYWIRQAPKKGLEWIALIFYDNNNKYYADSVKGRFTISRDNSKNTLYLEMNSLRSEDTAMYYCLRDSGPFSYWGQGTLVTVSS
VL: DIQMTQSPPSLSASLGDKVTINCQAGQNIKKYIAWYQQEPGKVPRLLIRYTSKLESDTPSRFSGSGSGRDYSFSISNVESEDIASYYCLQYDNLPWTFGGGTKLELK
notes: Rat hybridoma anti-human PDGFR-B monoclonal antibody
- binding result [9]: binds

B4: chBCU-6B1-G6 (antibody, V domains shown)
VH: QIQLVQSGPELKKPGESVKISCKASGYTFTNYGMYWVKQAPGQALQFMGWINTETGQPTYADDFKGRFVFFLETSASTAYLQINNLKNEDMATYFCARLGNNYGIWFAYWGQGTLVTVSS
VL: DIQMTQSPASLSASLGETVTIECRASDDLYSTLAWYQQKPGDSPQLLIFDANRLAAGVPSRFSGSGSGTQYSLKINSLQSEDVASYFCQQYNKFPWTFGGGTKLELK
notes: also called chimeric BCU-6B1-G6
- IC50 [10]: 0.498 nM
